Assay [1] addresses T1, adenovirus type 11 vector particles (human adenovirus type 11). Nature of the assay: SPR; electrostatic (fast) component of one-to-two model. (In SPR one partner is held on a chip, and binding of the other changes the refractive index at the surface.)
The target in assay [2] is T2, adenovirus type 13 vector particles (human adenovirus type 13). The assay is described as above.
Assay [3] concerns the target T1, adenovirus type 11 vector particles. The experiment in a line: SPR; hydrophobic (slow) component of one-to-two model.
In assay [4] the target is T2, adenovirus type 13 vector particles. The description is as above.
Assay [5] concerns the target T3, adenovirus type 5 vector particles (wild-type capsid) (human adenovirus type 5). Nature of the assay: SPR; electrostatic (fast) component of one-to-two model.
Assay [6] concerns the target T3, adenovirus type 5 vector particles …. The experiment in a line: SPR; hydrophobic (slow) component of one-to-two model.
For assay [7] the target is unchanged. The description is as above. The source holds these as a separate data set.

B1: human platelet factor 4 (natural protein)
chain: EAEEDGDLQCLCVKTTSQVRPRHITSLEVIKAGPHCPTAQLIATLKNGRKICLDLQAPLYKKIIKKLLES
By Kd is commonly meant a measure of binding affinity in units of concentration. A word on the koff: it is a measure of how fast the partners let go of each other. Read a high koff as fast dissociation. B1: the Kd in assay [1] amounted to 742 nM; in assay [2] it was 774 nM; in assay [3], 13.4 nM; in assay [4] it was 12.9 nM. The koff in assay [1] was found to be 0.00879 s⁻¹; in assay [2], 0.00761 s⁻¹; in assay [3] it was 0.000482 s⁻¹; in assay [4] it was 0.000363 s⁻¹.

B2: human platelet factor 4 (natural protein)
chain: B1 chain
modifications: wild-type capsid; copies by convention for the Ad5 virion; hexon is the PF4-binding protein; internal proteins IIIa, VI and VIII left out; Y477 is the fiber residue of the paper (AAQ19310.1)
Take B2: the koff is 0.0124 s⁻¹ in assay [5] and 0.00083 s⁻¹ in assay [6]. Moreover, the Kd in assay [7] is 24.4 nM.

The values are drawn from PMC12775996 (2025).
